Measurements from US20170137467A1 (CHROMOTEK, published 2017).
Substitutions are numbered along the chain they refer to. In names and notes the source's numbering stands.

B1: BC2 nanobody (VHH)
VHH: QVQLVESGGGLVQPGGSLTLSCTASGFTLDHYDIGWFRQAPGKEREGVSCINNSDDDTYYADSVKGRFTIFMDNAKDTVYLQMNSLKPEDTAIYYCAEARGCKRGRYEYDFWGQGTQVTVSS
notes: Alpaca VHH, 122 aa; also called BC2-Nb; BC2 nanotrap (BC2-Nb immobilized on agarose/Sepharose beads); not shown: C-terminal 6xHis-tag added by the pHEN6 vector
B2: BC2-Nb(R106E) (VHH)
VHH: B1 VHH with R106E
notes: Headlock mutant; immobilized on beads in the library pulldown

Key:
MEPDRKAAVSHWQQ = biological target: T1, MEPDRKAAVSHWQQ; assay: truncated peptides of β-catenin aa 14-27 on OVA-microspheres, biotinylated BC2-Nb, streptavidin-PE
T1 construct: full-length peptide of both truncation series; also called β-catenin aa 14-27
T1 peptide: MEPDRKAAVSHWQQ
Excerpt: (§1) As negative controls, microspheres comprising Ovalbumin and the Myc-peptide ([…]) covalently coupled to OVA-microspheres were used. […] Evaluation of the PE-signals were done in a Flexmap 3D (Luminex).

MEPDRKAAVSHWQ = biological target: T2, MEPDRKAAVSHWQ; assay: as above
T2 construct: C-terminal truncation; also called β-catenin aa 14-26
T2 peptide: MEPDRKAAVSHWQ
Excerpt: as §1

MEPDRKAAVSHW = biological target: T3, MEPDRKAAVSHW; assay: as above
T3 construct: C-terminal truncation; also called β-catenin aa 14-25
T3 peptide: MEPDRKAAVSHW
Excerpt: as §1

MEPDRKAAVSH = biological target: T4, MEPDRKAAVSH; assay: as above
T4 construct: C-terminal truncation; also called β-catenin aa 14-24
T4 peptide: MEPDRKAAVSH
Excerpt: as §1

MEPDRKAAVS = biological target: T5, MEPDRKAAVS; assay: as above
T5 construct: C-terminal truncation; also called β-catenin aa 14-23
T5 peptide: MEPDRKAAVS
Excerpt: as §1

EPDRKAAVSHWQQ = biological target: T6, EPDRKAAVSHWQQ; assay: as above
T6 construct: N-terminal truncation; also called β-catenin aa 15-27
T6 peptide: EPDRKAAVSHWQQ
Excerpt: as §1

DRKAAVSHWQQ = biological target: T7, DRKAAVSHWQQ; assay: as above
T7 construct: N-terminal truncation; also called β-catenin aa 17-27
T7 peptide: DRKAAVSHWQQ
Excerpt: as §1

RKAAVSHWQQ = biological target: T8, RKAAVSHWQQ; assay: as above
T8 construct: N-terminal truncation; also called β-catenin aa 18-27
T8 peptide: RKAAVSHWQQ
Excerpt: as §1

KAAVSHWQQ = biological target: T9, KAAVSHWQQ; assay: as above
T9 construct: N-terminal truncation; also called β-catenin aa 19-27
T9 peptide: KAAVSHWQQ
Excerpt: as §1

AAVSHWQQ = biological target: T10, AAVSHWQQ; assay: as above
T10 construct: N-terminal truncation; also called β-catenin aa 20-27
T10 peptide: AAVSHWQQ
Excerpt: as §1

BC2T S8M library peptide = biological target: T11, BC2T S8M library peptide (human); assay: peptide library pulldown on immobilized Nb, LC-MS of supernatant; ratio vs GFP-Nb control (1 = not captured, 0 = captured)
T11 construct: also called BC2TS8X: M
T11 peptide: Ac-PDRKAAVMHWQQ-NH2
How it was run: (§2)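 Unbound peptide left in supernatant after 1 h pulldown in PBS/0.01% CHAPS measured by reversed-phase LC-MS (8–30% eluent B gradient, 20 min).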

BC2T H9V library peptide = biological target: T12, BC2T H9V library peptide (human); assay: as above
T12 peptide: Ac-PDRKAAVSVWQQ-NH2
How it was run: as §2

[1] = biological target: T13, BC2T W10T library peptide (human); assay: as above
T13 construct: also called BC2TW10X: T
T13 peptide: Ac-PDRKAAVSHTQQ-NH2
How it was run: as §2

[2] = biological target: T14, BC2T W10K library peptide (human); assay: as above
T14 construct: also called BC2TW10X: K
T14 peptide: Ac-PDRKAAVSHKQQ-NH2
How it was run: as §2

[3] = biological target: T15, BC2T Q11A library peptide (human); assay: as above
T15 peptide: Ac-PDRKAAVSHWAQ-NH2
How it was run: as §2

[4] = biological target: T16, BC2T Q11N library peptide (human); assay: as above
T16 peptide: Ac-PDRKAAVSHWNQ-NH2
How it was run: as §2

[5] = biological target: T17, BC2T Q12T library peptide (human); assay: as above
T17 peptide: Ac-PDRKAAVSHWQT-NH2
How it was run: as §2

[6] = biological target: T18, BC2T Q12K library peptide (human); assay: as above
T18 peptide: Ac-PDRKAAVSHWQK-NH2
How it was run: as §2

Row | Binder | binding result (MEPDRKAAVSHWQQ) | binding result (MEPDRKAAVSHWQ) | binding result (MEPDRKAAVSHW) | binding result (MEPDRKAAVSH) | binding result (MEPDRKAAVS) | binding result (EPDRKAAVSHWQQ) | binding result (DRKAAVSHWQQ) | binding result (RKAAVSHWQQ) | binding result (KAAVSHWQQ) | binding result (AAVSHWQQ) | ratio (BC2T S8M library peptide) | ratio (BC2T H9V library peptide) | ratio [1] | ratio [2] | ratio [3] | ratio [4] | ratio [5] | ratio [6]
1 | B1 | binds | binds | binds | no binding (tested: 1 µg/ml BC2-Nb) | no binding (tested: 1 µg/ml BC2-Nb) | binds | binds | binds | no binding (tested: 1 µg/ml BC2-Nb) | no binding (tested: 1 µg/ml BC2-Nb) | – | – | – | – | – | – | – | –
2 | B2 | – | – | – | – | – | – | – | – | – | – | 1 | 0.5 | 1.1 | 1.3 | 0.3 | 0.2 | 0.1 | 0
